Laboratory results published in PMC6533264 (Scientific Reports, 2019).

Each molecule was assayed against Dupilumab analogue (assay: ELISA). Conditions: dupilumab analogue 100 pM; read off a plot.

| Molecule | percent of parent [%] |
| --- | --- |
| extracellular domain of human IL-4Rα (residues 26–232), C-terminal 6× His (from UniProt P24394) Y208A | 100 |
| extracellular domain of human IL-4Rα (residues 26–232), C-terminal 6× His (from UniProt P24394) S95A | 100 |
| extracellular domain of human IL-4Rα (residues 26–232), C-terminal 6× His (from UniProt P24394) D97A | 73 |
| extracellular domain of human IL-4Rα (residues 26–232), C-terminal 6× His (from UniProt P24394) L67A | 100 |
| extracellular domain of human IL-4Rα (residues 26–232), C-terminal 6× His (from UniProt P24394) D92A | 100 |
| extracellular domain of human IL-4Rα (residues 26–232), C-terminal 6× His (from UniProt P24394) Y38A | 120 |
| extracellular domain of human IL-4Rα (residues 26–232), C-terminal 6× His (from UniProt P24394) V93A | 76 |
| extracellular domain of human IL-4Rα (residues 26–232), C-terminal 6× His (from UniProt P24394) L68A | 97 |

The molecules below were run against T1, insulin (Homo sapiens (assumed), UniProt P01308) (assay: ELISA; non-specificity ELISA: hemocyanin (150 ng/well) and insulin (150 ng/well) coated (also dsDNA and cardiolipin)). Conditions: both partners purified.
T1 construct: insulin B chain; insulin A chain; Polyreactivity antigen; source: bought: Sigma, I9278

| Molecule | binding result |
| --- | --- |
| 4R34.1.19, human IgG1 (antibody, V domains shown) VH: EVQLLESGGGLVQPGGSLRLSCAASGFTFSRHAMAWVRQAPGKGLEWVSAITSSGRSIYYADSVKGRFTISRDNSKNTLYLQMNSLRAEDTAVYYCARVHRAFDYWGQGTLVTVSS VL: QSVLTQPPSASGTPGQRVTISCSGSPLFPDSGSFNWYQQLPGTAPKLLIYADSHRPSGVPDRFSGSKSGTSASLAISGLRSEDEADYYCGTWDYSLSGYVLGGGTKLTVL | no binding |

These molecules were tested against T2, extracellular domain of human IL-4Rα (residues 26–232), C-terminal 6× His (human, UniProt P24394) (assay: BLI; OctetRED96; Ab (1 μg/mL) captured on anti-human IgG Fc capture (AHC) biosensors at low density (0.6 to 0.8 nm), soluble monomeric IL-4Rα as analyte; 25 °C, PBS pH 7.4, 0.02% Tween 20; association 300 s, dissociation 600-900 s; 1:1 binding model). Conditions: both partners purified.
T2 construct: human interleukin-4 receptor alpha subunit, extracellular domain, residues 26-232; Subcloned into the pSecTag2A vector; N-glycosylated (~45 kDa, ~26 kDa after PNGase F); also called wild-type IL-4Rα; soluble IL-4Rα; source: HEK293F, transiently transfected, purified (Ni-NTA); not shown: His6, C-terminal, kept

| Molecule | Kd [nM] | koff [s⁻¹] | kon [M⁻¹ s⁻¹] |
| --- | --- | --- | --- |
| 4R34, human IgG1 (antibody, V domains shown) VH: EVQLLESGGGLVQPGGSLRLSCAASGFTFSNYAMSWVRQAPGKGLEWVSAISSGGGNIYYADSVKGRFTISRDNSKNTLYLQMNSLRAEDTAVYYCARVHRAFDYWGQGTLVTVSS VL: QSVLTQPPSASGTPGQRVTISCSGSSSNIGSNTFNWYQQLPGTAPKLLIYADSHRPSGVPDRFSGSKSGTSASLAISGLRSEDEADYYCGTWDYSLSGYVLGGGTKLTVL | 1.04 | 0.00361 | 3.47e+06 |
| 4R34.19, human IgG1 (antibody, V domains shown) VH: EVQLLESGGGLVQPGGSLRLSCAASGFTFSNYAMSWVRQAPGKGLEWVSAITSSGGNIYYADSVKGRFTISRDNSKNTLYLQMNSLRAEDTAVYYCARVHRAFDYWGQGTLVTVSS VL: QSVLTQPPSASGTPGQRVTISCSGSSSNIGSNTFNWYQQLPGTAPKLLIYADSHRPSGVPDRFSGSKSGTSASLAISGLRSEDEADYYCGYWDYSLSGYVLGGGTKLTVL | 0.532 | 0.00243 | 4.58e+06 |
| 4R34.29, human IgG1 (antibody, V domains shown) VH: EVQLLESGGGLVQPGGSLRLSCAASGFTFSNYAMSWVRQAPGKGLEWVSAITAGGGSIYYADSVKGRFTISRDNSKNTLYLQMNSLRAEDTAVYYCARVHRAFDYWGQGTLVTVSS VL: QSVLTQPPSASGTPGQRVTISCSGSSSNIGSNTFNWYQQLPGTAPKLLIYADSHRPSGVPDRFSGSKSGTSASLAISGLRSEDEADYYCGTWDYSLSGYVLGGGTKLTVL | 0.716 | 0.00371 | 5.18e+06 |
| 4R34.1.11, human IgG1 (antibody, V domains shown) VH: EVQLLESGGGLVQPGGSLRLSCAASGFTFSNYAMSWVRQAPGKGLEWVSAITSSGRSIYYADSVKGRFTISRDNSKNTLYLQMNSLRAEDTAVYYCARVHRAFDYWGQGTLVTVSS VL: QSVLTQPPSASGTPGQRVTISCSGSSANSRTDGFNWYQQLPGTAPKLLIYADSHRPSGVPDRFSGSKSGTSASLAISGLRSEDEADYYCGTWDYSLRGYVLGGGTKLTVL | 0.21 | 0.000968 | 4.62e+06 |
| 4R34.1.13, human IgG1 (antibody, V domains shown) VH: EVQLLESGGGLVQPGGSLRLSCAASGFTFSNYAMSWVRQAPGKGLEWVSAITSSGRSIYYADSVKGRFTISRDNSKNTLYLQMNSLRAEDTAVYYCARVHRAFDYWGQGTLVTVSS VL: QSVLTQPPSASGTPGQRVTISCSGSAQFGSRDNFNWYQQLPGTAPKLLIYADSHRPSGVPDRFSGSKSGTSASLAISGLRSEDEADYYCGTWDYSLRGYVLGGGTKLTVL | 0.208 | 0.00107 | 5.12e+06 |
| 4R34.1.17, human IgG1 (antibody, V domains shown) VH: EVQLLESGGGLVQPGGSLRLSCAASGFTFSNYAMSWVRQAPGKGLEWVSAITSSGRSIYYADSVKGRFTISRDNSKNTLYLQMNSLRAEDTAVYYCARVHRAFDYWGQGTLVTVSS VL: QSVLTQPPSASGTPGQRVTISCSGSTKQMHNYQFNWYQQLPGTAPKLLIYADSHRPSGVPDRFSGSKSGTSASLAISGLRSEDEADYYCGTWDYSLSGYVLGGGTKLTVL | 0.179 | 0.000879 | 4.92e+06 |
| 4R34.1.18, human IgG1 (antibody, V domains shown) VH: EVQLLESGGGLVQPGGSLRLSCAASGFTFSNYAMSWVRQAPGKGLEWVSAITSSGRSIYYADSVKGRFTISRDNSKNTLYLQMNSLRAEDTAVYYCARVHRAFDYWGQGTLVTVSS VL: QSVLTQPPSASGTPGQRVTISCSGSLLRGENLQFNWYQQLPGTAPKLLIYADSHRPSGVPDRFSGSKSGTSASLAISGLRSEDEADYYCGTWDYSLRGYVLGGGTKLTVL | 0.29 | 0.00175 | 6.05e+06 |
| 4R34.1.19, human IgG1 (antibody, V domains shown) VH: EVQLLESGGGLVQPGGSLRLSCAASGFTFSRHAMAWVRQAPGKGLEWVSAITSSGRSIYYADSVKGRFTISRDNSKNTLYLQMNSLRAEDTAVYYCARVHRAFDYWGQGTLVTVSS VL: QSVLTQPPSASGTPGQRVTISCSGSPLFPDSGSFNWYQQLPGTAPKLLIYADSHRPSGVPDRFSGSKSGTSASLAISGLRSEDEADYYCGTWDYSLSGYVLGGGTKLTVL | 0.178 | 0.000877 | 4.93e+06 |
| 4R34.1.21, human IgG1 (antibody, V domains shown) VH: EVQLLESGGGLVQPGGSLRLSCAASGFTFSNYAMSWVRQAPGKGLEWVSAITSSGRSIYYADSVKGRFTISRDNSKNTLYLQMNSLRAEDTAVYYCARVHRAFDYWGQGTLVTVSS VL: QSVLTQPPSASGTPGQRVTISCSGSAALDLSPSFNWYQQLPGTAPKLLIYADSHRPSGVPDRFSGSKSGTSASLAISGLRSEDEADYYCGTWDYSLSGYVLGGGTKLTVL | 0.228 | 0.00106 | 4.63e+06 |
| 4R34.1, human IgG1 (antibody, V domains shown) VH: EVQLLESGGGLVQPGGSLRLSCAASGFTFSNYAMSWVRQAPGKGLEWVSAITSSGRSIYYADSVKGRFTISRDNSKNTLYLQMNSLRAEDTAVYYCARVHRAFDYWGQGTLVTVSS VL: QSVLTQPPSASGTPGQRVTISCSGSSSNIGSNTFNWYQQLPGTAPKLLIYADSHRPSGVPDRFSGSKSGTSASLAISGLRSEDEADYYCGTWDYSLSGYVLGGGTKLTVL | 0.401 | 0.00172 | 4.28e+06 |
| 4R34.2, human IgG1 (antibody, V domains shown) VH: EVQLLESGGGLVQPGGSLRLSCAASGFTFSNYAMSWVRQAPGKGLEWVSAITSSGANIYYADSVKGRFTISRDNSKNTLYLQMNSLRAEDTAVYYCARVHRAFDYWGQGTLVTVSS VL: QSVLTQPPSASGTPGQRVTISCSGSSSNIGSNTFNWYQQLPGTAPKLLIYADSHRPSGVPDRFSGSKSGTSASLAISGLRSEDEADYYCGTWDYSLRGYVLGGGTKLTVL | 0.853 | 0.00401 | 4.7e+06 |
